Here are results for one molecule from PMC9457175.

The target in the assay is KARS1 (human), Q15046. Description: RNA immunoprecipitation with qRT-PCR. The note with it: remark: other sources report otherwise.
KARS1 (human), Q15046, sequence (Q15046 whole entry): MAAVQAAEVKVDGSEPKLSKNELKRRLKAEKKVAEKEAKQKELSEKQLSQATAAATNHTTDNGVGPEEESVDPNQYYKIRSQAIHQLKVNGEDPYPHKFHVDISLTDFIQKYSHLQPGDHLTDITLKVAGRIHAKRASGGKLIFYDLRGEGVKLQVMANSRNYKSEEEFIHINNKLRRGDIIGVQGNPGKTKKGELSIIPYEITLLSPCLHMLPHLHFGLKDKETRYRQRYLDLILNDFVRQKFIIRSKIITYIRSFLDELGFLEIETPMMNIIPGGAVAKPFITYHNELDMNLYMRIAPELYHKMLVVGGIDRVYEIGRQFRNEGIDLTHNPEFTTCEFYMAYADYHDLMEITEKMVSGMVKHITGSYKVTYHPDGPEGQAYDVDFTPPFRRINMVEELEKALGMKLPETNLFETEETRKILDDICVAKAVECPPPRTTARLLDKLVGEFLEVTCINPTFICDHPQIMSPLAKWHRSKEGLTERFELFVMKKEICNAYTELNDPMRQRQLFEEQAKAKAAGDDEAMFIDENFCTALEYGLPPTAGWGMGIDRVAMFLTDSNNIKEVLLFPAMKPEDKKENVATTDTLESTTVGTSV

B1: AIMP1, Q12904 (natural protein)
chain: MANNDAVLKRLEQKGAEADQIIEYLKQQVSLLKEKAILQATLREEKKLRVENAKLKKEIEELKQELIQAEIQNGVKQIPFPSGTPLHANSMVSENVIQSTAVTTVSSGTKEQIKGGTGDEKKAKEKIEKKGEKKEKKQQSIAGSADSKPIDVSRLDLRIGCIITARKHPDADSLYVEEVDVGEIAPRTVVSGLVNHVPLEQMQNRMVILLCNLKPAKMRGVLSQAMVMCASSPEKIEILAPPNGSVPGDRITFDAFPGEPDKELNPKKKIWEQIQPDLHTNDECVATYKGVPFEVKGKGVCRAQTMSNSGIK
As for B1, the fold enrichment of mRNA (anti-FLAG RIP over IgG) amounted to 9.7 fold.
